Assay: yeast display, Sf9 membrane polyspecificity reagent, FACS + sequencing; frameworks hold sequencing errors
Procedure, shortened: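 A nanobody's polyreactivity label depends on the gate it was sorted from. Yeast display cells were stained with 10% biotinylated, detergent-solubilized Sf9 membrane reagent for 1 hour at 4 °C, enriched on streptavidin microbeads and sorted by FACS. The low and high (top ~1%) gates were set on anti-HA fluorescence for expression and streptavidin fluorescence for reagent binding.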

Row | Sequence | polyreactivity (PSR sort gate)
1 | QVQLVESGGGLVQAGGSLRLSCAASGRTSYSNAMGWYRQAPGKERELVAAISGSGVRTYYADSVKGRFTISRDNAKNTVYLQMNSLKPEDTAVYYCAAAGRYPALYGYWGQGTQVTVSS | high polyreactivity
2 | QVQLVESWGGLVQAGGNLRLSCAASGFIFTRYAMGWYRPAPGTERELVAAISTSGDRTYYADSVKGRFTISRDNAKNTVYLQMNSLKPEDTAVYYCAVVRPRSVVRYDYWGQGTQVTVSS | high polyreactivity
3 | QVQLVESGGGLVQAGGSLRLSCAASGSTFYDNAMGWYRQAPGKERELVAAIDGGDTYYADSVKGRFTISRDNAKNTVYLQMISLKPEDTAVYYCAAESLPEISVGLGYWGQGTQVTVSS | low polyreactivity
4 | QVQLVESGGGLVQAGGSLRLSCAASGRIFYYTTMGWSRQAPGKERELVAAISVSGGSTYYADSVKGRFTISRDKAKNTVYLQRNSLKPEDTAVYYCNAKDWYFYRYDYWGQGTQVTVSS | low polyreactivity
5 | QVQLVESVGGLVQAGGSLRLSCAASGFTFKYYAMGWYRQAPGKERELVAAITGTGGSTYYADSVKGRFTISRDTAKNTVYLLMNSLKPEDTAVYYCNAGSARGYVPYDSFAYDYWGQGTQVTVSS | low polyreactivity
6 | QVQLVESGGGLVQAGGSLRLSCAASGSIFAYYAMGWYRQAPGKERELVAAITSGDSTYYADSVKGRFTISRDNAKNTVYLQMNSLKPEDTAVYYCAADVSWRSNWYDYWGQGTQVTVSS | low polyreactivity
7 | QVQLVESGGGLVQAGGSLRLSCAASGSTFYSYVIGWYRQAPGRESELVAVITSGGSTTYADSVNGRFTISRDNAKNTVYLEMNSLIPEDTAVYYCNAAYYNTDTQKVTFDYWGQGTQVTVSS | low polyreactivity
8 | QVQLVESGGGLVQAGGSLRLSCAASGSTFDANTMGWYRQAPGKERELVAAISSNGGRTYYADSVKGRFTISRDNAKNTVYLQMNSLKPEDTAVYYCAATSYYRYRETYDYWGQGTQVTVSS | high polyreactivity
9 | QVQLVESGGGLVHAGGSLRLSCAASGSIFAANAMGWYRQAPGKERELVAAISSSGDITYYADSVKGRFTISRDNAKNSVFLQMNSLKPEDTAVYYCAARRYPYHEDNYWGQGTQVTVSS | high polyreactivity
10 | QVQLVESGGGLVQAGGSLRLSCAASGSIFYYNAMGWYRQAPGKERELVAAISWGDGITYYADSVKGRFTISRDNAKNTVYLQMNSLKPEDTAVYYCAVDYYYLAFEYWGQGTQVTVSS | high polyreactivity
11 | QVQLVESGGGLVQAGGSLRLSCAASGFTFATYAMGWYRQAPGKERELVAAISKSGGSTYYADSVKGRFTISRDNAKNTVYLQMNSLKPEDTAVYYCAKRRSVRYDYWGQGTQVTVSS | high polyreactivity
12 | QVQLVESGGGLVQAGGSLRLSCAASVSTIARYAMGRYRQAPGKERELVAAISRTGRTYYADSVKGRFTISRDNAKNTVYLQMNSLKPEDTAVYYCNAYYGPRGYGYWGQGTQVTVSS | high polyreactivity
13 | QVQLVESGGGLVQAGGSHRLSCAASGRIFTYNAMGWYRQAPGKERELVAVITSGGSTYYADSVKGRFTISRDNAKNTVYLQMNSLKPEDTAVYYCNAVYFRYRYNYWGQGTQVTVSS | high polyreactivity
14 | QVHLVESGGGLVQAGGSIRLSCAASGSTFLVYAMGWYRPAPGKGRELVAAISRSGSSTYYADSVKGRFTISRDNAMNTVYLQMIRLKPEDTAVYYCNAYSQYWLGNNYWGQGTQVTVSS | high polyreactivity
15 | QVQLVESGGGLVQAGGSLRLSCAASGFTFVRNTMGWYRQATGKERELVAAISRSGGSTYYADSVKGRFTISRDNAKNTVYFKIYSLKPEDSAVYYCNAYRYVHYDWGHGTQVTVSS | high polyreactivity
16 | QVQLVESGGGLVQAGGSLRLSCAASGGIFTSNAMGWYRQAPGKERELVAAITKNGGRTYYADSVKGRFTISRDNAKNTVYLQMNSLKPEDTAVYYCNAAVTFRCYDYWGQGTQVTVSS | high polyreactivity
17 | QVQLVESGGGLVQAGGSLRLSCAASGITFNTYAMGWYRHAPGKERELVAVITWSDGGTYYADSVKGRFTISRDNAKNTVYLQMNSLKPEDTAVYYCAADYDWGYDYWGQGTQVTVSS | low polyreactivity
18 | QVQLVESGGGLVHAGGSLRLSCDASGSIFDGYGMGWYRQAPGKERELVASITWNDGSTYYADSVKGRFTISRDNAKNTVYLQMNSLKPEDTAVYYCAADQWGYEYDYWGQGTQVTVSS | low polyreactivity
19 | QVQLEESGGGLVQAGGSLRLSCAASGFTFPTNAMGWYRQAPGKERELVATISLGAGSTHYADSVKGRFTISRDNAKNTVYLQMNSLKPEDTAVYYCAARSRRWYDYDYWGQGTQVTVSS | low polyreactivity
20 | QVQLVESGAGLVQAGGSLRLSCAASGFTFQYYAMGWYRQAPGKERELVATISSTDNTYYADSVKGRFTISRDNAKNTVYLQMNSLKPEDTAVYYCAARPTYRRRQGRGYWGQGTQVTVSS | high polyreactivity
21 | QVQLVESGGGLVQAGGSLRLSSPDSGLIFYLYAMGWYRQSHGKEREFVAAITSGGGSTYYADSVKGRFTISRDNAKNTVYLQINILIPEDTAVFYCAARLVLYITVVYEVDYWGQGTQVTVSS | low polyreactivity

Row | Sequence | polyreactivity (PSR sort gate)
22 | QVQRVESGGGLVQAGGSLRLTCAPSGFIFYYYAMGWYRQAPGKEMQLVAAIDSGGSTYADSVNGRFTISRDNAKNTVYLQMTSLKPEDTAVYYCAADYYLPWYPDYDYWGQGTQVTVSS | low polyreactivity
23 | QVHLVESGGGLVQAGGSLRLSCAASGRIFYTNAMGWYRQAPGKERELVAVISWGGDTTYYADSVKGRFTISRDNAKNTVSLQMNSLKPEDTEVYYCAARSKYTHSRQSDYWGQGTQVTVSS | low polyreactivity
24 | QVQLVESGGGLVQAGGSLRLSCAASGRTFGHYAMGWYRQAPGKERELVAAISCRGTSTYYADSVKGRFTISRDNAKNTVYLQMNSLKPEDTAVYYCAAVSVTSYRYDYWGQGTQVTVSS | high polyreactivity
25 | QVQLVESGGGLFQAGGSLRLSCAASGFTFDYYAMGWYRPAPGKERELVAAISRAGSTNYADSVKGRFTISRDNAKNTVYLQMNSLKPEDTAVYYCNKGYHSWSRLSQFGWSYDYWGQGTQVTVSS | high polyreactivity
26 | QVQLVESGGGLVQAGGSLRLSCAASGSIFLYNAMGWYRQAPGKERELVAAITWSTDRTYYADSVKGRFTISRDNAKNTVYVQMNSLKPEDTAVYYCNRLVNHIYVPRRDYWGQGTQVTVSS | low polyreactivity
27 | QVQLVESGGGLVQAGGSLRLSCAASGSIFRVNAMGWYRQAPGKERELVAAISRRGGRRYYADSVKGRFTISRDNAKNTVYLQMNSLKPEDTAVYYCAAGVSVSASPYNGFDYWGQGTQVTVSS | high polyreactivity
28 | QVQLVESGGGLVQAGGSLRLSCAASGSTFRPYSMGWYRQAPGKEREFVAAINYRGGSTNYADSVKGRFTISRDNAKNTVYLQMNSLKPEDTAVYYCAATYYLRLRRPYWQGFNYWGQGTQVTVSS | high polyreactivity
29 | QVQLVESGGGLVQAGGSLRLSCAASGRIFGRYAMGWYRQAPGKERELVAGITGSSGTTYYADSVKGRFTISLDNAKNTVYLQMNSLKPEDTAVYYCAVETYWHARSHDYWGQGTQVTVSS | low polyreactivity
30 | QVQLVESGGGLVQAGGSLRLSCAASGRIFPYYVMGWYRQAPGKERELVAAISRSGSSTYYADSVKGRFTITRDNAKNTVYLQMNSLKPEDTAVYYCAADYNWSPYYTRGDYWGQGTQVTVSS | high polyreactivity
31 | QVQLVESGGGLVQAVGSLRLSCAASGSTFPYYTMGWYRQAPGKERELVAAITASGGSTYYADSVKGRVTISRDNAKNTVYLQMNSLKPEDTAVYYCAATCLNHVRKSRGYDYWGQGTQVTVSS | high polyreactivity
32 | QVQLVESGGGLVQAGGSLRLSCAASGLIFRGYAMGWYRQAPGKERELVAAISKSGGSTYYADSVKGRFTISRDNAKNTVYLQMNSLKPEDTAVYYCNARKHGSRTGGYYWGQGTQVTVSS | high polyreactivity
33 | QVQLVESGGGLVQAGGSLRLSCAASGSTFDRYAMGWYRQAPGKERELVAAITRGGSTYYADSVKGRFTISRDNAKNTVYLQMNSLKPEDTAVYYCAAAQWWFRVRGARYYYWGQGTQVTVSS | high polyreactivity
34 | QVHLVESGGGIVQAGGSLRLSCAASGSIFKYYPMGWYRQAAGKERELVAVISSGGRTYYADSVKGRFTISRDNAKNTVYLQMNSLKPEDTAVYYCAVYRTFRYRYDSWGQGTQVTVSS | high polyreactivity
35 | QVQLVESGGGLVQAGGSLRLSCAASGNTFSQYAMGWSRQAPGKERELVATISKSSGSTSYADSVKGRFTISRDNAKNTVYLQMNSLKPEDTAVYYCNADSSDVYHHLGVLFFSTWYDYWGQGTQVTVSS | low polyreactivity
36 | QVQLVESGGGLVQAGGSLRLSCAASGRIFAGYGMGWYRQAPGKERELVAAISSGGSTYYADSVKGRFTISRDNAKNTVYLQMTSLKPEDTAVYDCATDGQSVPDDYYQNVDYDYWGQGTQVAVSS | low polyreactivity
37 | HVQPQESGGGLVQAGGSLRLSCAASGTISADYKMGWYRQAPGKEREFVAANAFGAFTNYADSVKGRFTISRDIAKNTVYLQMNSLKPEDTAVYYCAADLYYYAYDYWGQGTQVTVSS | high polyreactivity
38 | QDQHVESGGGLVQAGGSLRLSCAASARIFVPYAMGWYRQAPGQERELVAAFSWRGGSTNYADSVKGRFTISRDNAKNTVYLQLNSLIPEDTAVYYCAAVPVRYRYSYGYYYWGQGTQVSVSS | high polyreactivity
39 | QVQLVESGGGLVQAGGSLRLSCAASGFTFKYYAMGWYRQAPGKERELVAAISSGVSTNYADSVKGRFTISRDNAKNTVYLQMNSLKPEDTAVYYCNAEVFWWDQWYDYWGQGTQVTVSS | high polyreactivity
40 | QVQLVESGGGLVQAGGSLRLSCAASGRTLRLYAMGWSRQAPGKERELVAAISSRGRTYYADSVKGRFTISRDNAKNTVYLQMNSLKPEDTAVYYCNTAQFLREDYWGQGTQVTVSS | high polyreactivity
41 | QVQLVESGGRLVQAGGSLLLSCAASGSTIGYYDMGWYRQAPGKERELVASITKSGGTTRYADSVKGRFTISRDNAKNTVYLQMNSLKPEDTAVYYCNADRSLLYSRKIEYDYWGQGTQVTVRS | low polyreactivity
